Bridge positions count the residues as written; N and C are the ends. Square brackets hold non-standard residues; d marks the D form. Ends that are not written are not given here. S5 = C=CCCC[C@](C)(N)C(=O)O

Experimental findings from patent US12366576B2, “Compositions, assays, and methods for direct modulation of fatty acid metabolism” (Dana-Farber Cancer Institute, Inc., priority 2016, dated 2025) are described below.

The assay addresses T1, VLCAD (Homo sapiens, UniProt P49748).
T1 construct: 10x His (N); made in house; host or cells: E. coli BL21(DE3), pET19b
T1 sequence (P49748 40-655): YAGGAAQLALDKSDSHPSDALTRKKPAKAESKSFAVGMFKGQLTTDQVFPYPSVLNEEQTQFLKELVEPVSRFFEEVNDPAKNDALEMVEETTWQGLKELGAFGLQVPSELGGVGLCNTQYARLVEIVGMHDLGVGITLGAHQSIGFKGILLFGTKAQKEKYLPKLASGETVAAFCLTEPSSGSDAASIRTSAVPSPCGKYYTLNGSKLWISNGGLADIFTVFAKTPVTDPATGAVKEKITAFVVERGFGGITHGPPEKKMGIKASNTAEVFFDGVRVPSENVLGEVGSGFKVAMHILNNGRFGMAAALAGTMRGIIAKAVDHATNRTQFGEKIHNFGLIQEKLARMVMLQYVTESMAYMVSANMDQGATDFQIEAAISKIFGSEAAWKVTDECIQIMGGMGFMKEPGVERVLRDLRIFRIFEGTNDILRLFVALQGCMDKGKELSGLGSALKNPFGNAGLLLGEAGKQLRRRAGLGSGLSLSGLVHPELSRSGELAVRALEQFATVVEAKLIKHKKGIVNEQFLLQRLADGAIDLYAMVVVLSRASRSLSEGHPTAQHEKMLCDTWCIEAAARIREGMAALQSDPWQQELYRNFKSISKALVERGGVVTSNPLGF
Description: In vitro VLCAD enzymatic activity assay (palmitoyl-CoA, ferrocenium hexafluorophosphate). Format: biochemical. The following applies: 0.75 μM VLCAD pre-incubated overnight at 4° C. with 75 μM SAHB; substrate palmitoyl-CoA. The protocol: To assess whether the direct MCL-1/VLCAD binding interaction influences VLCAD enzymatic activity, an in vitro enzymatic activity assay was conducted. Recombinant VLCAD was incubated with its substrate (palmitoyl-CoA) and ferrocenium hexafluorophosphate, a strong electrophile. As VLCAD acts upon its substrate and oxidizes it, the ferrocenium hexafluorophosphate is reduced, causing a change in absorbance that is readily measured.
VLCAD. Mature human VLCAD lacking its cleavable leader sequence (aa 40-655) (NP_000009.1) was subcloned into the pET19b vector (Novagen) using NdeI and XhoI restriction sites. Correct insertion was confirmed by DNA sequencing. […]
VLCAD enzymatic activity was measured as previously described (see, e.g., Doulias et al., Sci Signal, 6(256):rs1 (2013); Lehman et al., Anal. Biochem., 186(2):280-284 (1990)). […] Where VLCAD activity was assessed in the presence of MCL-1 SAHBs, 0.75 μM VLCAD was incubated overnight at 4° C. with 75 μM SAHB and the protein-peptide mixture was used to initiate the ferrocenium reaction. Decrease in ferrocenium absorbance as a function of time at 300 nm was recorded and the initial velocity (V0) was calculated in units of U/mg using the molar absorptivity of ferrocenium (ε=4.3 mM^−1 cm^−1 at 300 nm) (see, e.g., Izai et al.). […]

For the substance “MCL-1 SAHBD: hydrocarbon-stapled peptide mimicking the MCL-1 BH3 domain (Stabilized Alpha-Helix of BCL-2 Domain), SEQ ID NO:19 (RKALETLRRVGDGV[S5]RNH[S5]TAF; staple 15-19)”, the “effect on VLCAD enzymatic activity” value is on record as “caused a decrease in enzymatic activity”.
